In US20250326860A1 (ADAGENE PTE, published 2025):
Changes are numbered by the printed parent chain. Where “and” joins values, the source holds several entries; their conditions need not be identical. Equal values may be shown once.

T1: cynomolgus monkey CD20 on B cells (cynomolgus monkey, UniProt M4ZHZ6 1-297)
T1 construct: whole, on cells
T1 sequence: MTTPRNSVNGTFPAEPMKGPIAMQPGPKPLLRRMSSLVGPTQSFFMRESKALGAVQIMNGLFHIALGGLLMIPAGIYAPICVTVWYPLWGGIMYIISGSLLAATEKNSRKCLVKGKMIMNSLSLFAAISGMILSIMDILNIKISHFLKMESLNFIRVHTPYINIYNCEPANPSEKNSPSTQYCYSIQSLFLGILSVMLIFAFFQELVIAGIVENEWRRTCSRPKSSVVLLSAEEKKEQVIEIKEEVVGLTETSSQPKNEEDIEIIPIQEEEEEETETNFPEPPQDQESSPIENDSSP

T2: human CD20 on cells (human B cells; Raji, SU-DHL-8, SU-DHL-4, A3KAW, NAMALWA) (human, UniProt P11836 1-297)
T2 construct: whole, on cells
T2 sequence (looked up): T1 sequence with P25S, L31F, A51T, V157A, R217K, S226N, V227I, V239T

B1: TAC2225 (antibody, V domains shown)
VH: EVQLVESGGGLVQPGGSLRLSCAASGFTFNTYAMNWVRQAPGKGLEWVGRIRSKYNNYATYYADSVKGRFTISRDDSKNTLYLQMNSLRAEDTAVYYCVRHGNFGNSYVSWFAYWGQGTLVTVSS
VL: QAVVTQEPSLTVSPGGTVTLTCGSSTGAVTTSNYANWVQQKPGQAPRGLIGGTNKRAPGVPARFSGSLLGGKAALTLSGAQPEDEAEYYCALWYSNLWVFGGGTKLTVL
notes: also called parental cross-reactive anti-CD3 antibody; humanized SP34
B2: TY25455 (bispecific antibody, human IgG1, kappa, N297A)
light: QIVLSQSPAILSASPGEKVTMTCRASSSVSYIHWFQQKPGKSPKPWIYATSNLASGVPVRFSGSGSGTSYSLTISRVEAEDAATYYCQQWTSNPPTFGGGTKVEIKRTVAAPSVFIFPPSDEQLKSGTASVVCLLNNFYPREAKVQWKVDNALQSGNSQESVTEQDSKDSTYSLSSTLTLSKADYEKHKVYACEVTHQGLSSPVTKSFNRGEC
heavy: EVQLVQSGAEVKKPGSSVKVSCKASGYTFTSYNMHWVRQAPGKGLEWIGAIYPGSGDTSYNQKFKGRVTITADKSTSTAYMELSSLRSEDTAVYYCARSTYYGGDWYFNVWGQGTLVTVSSASTKGPSVFPLAPSSKSTSGGTAALGCLVKDYFPEPVTVSWNSGALTSGVHTFPAVLQSSGLYSLSSVVTVPSSSLGTQTYICNVNHKPSNTKVDKKVEPKSCDKTHTCPPCPAPELLGGPSVFLFPPKPKDTLMISRTPEVTCVVVDVSHEDPEVKFNWYVDGVEVHNAKTKPREEQYASTYRVVSVLTVLHQDWLNGKEYKCKVSNKALPAPIEKTISKAKGQPREPQVYTLPPSRKKLTKNQVKLTCLVKGFYPSDIAVEWESNGQPENNYKTTPPVLDCDGSFFLYSKLTVDKSRWQQGNVFSCSVMHEALHNHYTQKSLSLSPGK
chain: QAVVTQEPSLTVSPGGTVTLTCGSSTGAVTTSNYPNWVQQKPGQAPRGLIGGTNKRAPGVPARFSGSLLGGKAALTLSGAQPEDEAEYYCALWYSNLWVFGGGTKLTVLGGGGSGGGGSGGGGSGGGGSEVQLVESGGGLVQPGGSLRLSCAASGFTFNTYAINWVRQAPGKGLEWVGRIRSKYNNYATYYAESVKGRFTISRDDSKNTLYLQINSLRAEDTAVYYCVRHGNFGTSYVSWFAYWGQGTLVTVSSEPKSSDKTHTCPPCPAPELLGGPSVFLFPPKPKDTLMISRTPEVTCVVVDVSHEDPEVKFNWYVDGVEVHNAKTKPREEQYASTYRVVSVLTVLHQDWLNGKEYKCKVSNKALPAPIEKTISKAKGQPREPQVYTDPPSRDELTKNQVSLTCLVDGFYPSDIAVEWESNGQPENCYKTTPPVLDSDGSFFLYSKLTVDKSRWQQGNVFSCSVMHEALHNHYTQDSLSLSPGK
notes: also called parental CD20xCD3 bispecific antibody of TY25606; TY2455

Tests used:
[1] = target: T3, human CD3 on cells (Jurkat cells, human T cells) (human, UniProt P07766 23-207); assay: cell-based or functional assay
[2] = target: T3, human CD3 on cells (Jurkat cells, human …); assay: flow cytometry on Jurkat cells, APC anti-human IgG secondary antibody
Method: The Jurkat cells were thawed, washed, and cultured in an incubator. Jurkat cells were washed and 1×10⁵ Jurkat cells/well were aliquoted into 96-well plate and incubated with test articles for 1 hour at 4° C. After centrifugation and washing, Jurkat cells were further incubated with the secondary antibody APC anti-Human IgG for 30 minutes at 4° C. After centrifugation and washing, the Jurkat cells labelled with antibodies were re-suspended in 2% FBS DPBS and then were analyzed by FACS.

[3] = target: T4, cynomolgus monkey CD3 on T cells (cynomolgus monkey, UniProt Q95LI5 22-198); assay: flow cytometry, monkey CD4+ T cells
T4 construct: whole, on cells
Method: (§1) Binding of CD20xCD3 bispecific or SAFE-bispecific antibodies to purified human CD3+ T cells was determined by flow cytometry. Briefly, human or monkey PBMC were freshly purified with Ficoll gradient solution—Histopaque 1077 (Sigma) from a healthy donor and CD3+ T cells were isolated using EasySep™ Human T cell Enrichment Kit (StemCell). Before staining, […] human Fc receptors on CD3+ T cells were blocked with Human Fc Block (BD). Then cells were incubated with fluorescence labeled antibody mixture (APC-Cy7 Mouse Anti-human CD3, PerCP-CyTM5.5 Anti-human CD4 and FITC anti-human CD8) for 15 minutes at 4° C. After washing the cells once with PBS supplemented with 2% FBS, cells were aliquoted to 96-well plates at 2×10⁵ cells per well, and cells were incubated with serial diluted bispecific, SAFE-bispecific or IgG1 isotype control antibodies for 30 minutes at 4° C. After washing the cells twice with PBS supplemented with 2% FBS, cell surface bound antibody was detected by incubating the cells with APC-labeled mouse anti-human IgG Fc secondary antibody for 30 minutes at 4° C. Cells were washed and detected by FACS using Cytoflex (BeckMan) and data was analyzed by FlowJo. The mean fluorescence (MFI) of each antibody binding to human or monkey CD4+ T cells and CD8+ T cell populations were fitted with four-parameter non-linear regression to get EC₅₀ values by GraphPad Prism software.

[4] = target: T1, cynomolgus monkey CD20 on B cells; assay: flow cytometry, monkey B cells
[5] = target: T2, human CD20 on cells (human B cells; …); assay: flow cytometry, human B cells
Method: After washing the cells twice with PBS supplemented with 2% FBS, cell surface bound antibody was detected by incubating the cells with APC-labeled mouse anti-human IgG Fc secondary antibody for 30 minutes at 4° C. Cells were washed and detected by FACS using Cytoflex (BeckMan) and data was analyzed by FlowJo.

[6] = target: T4, cynomolgus monkey CD3 on T cells; assay: flow cytometry, monkey CD8+ T cells
Method: as §1

[7] = target: T3, human CD3 on cells (Jurkat cells, human …); assay: flow cytometry, human CD3+ T cells
Excerpt: (§2) Human PBMCs were freshly isolated from the blood of healthy donors by density gradient centrifugation using Histopaque-1077 (Sigma). Human CD3+ T cells were further isolated from PBMCs using the Human T Cell Enrichment Kit (Stem Cell Technologies). Monkey PBMCs were isolated from a naïve cynomolgus monkey by density gradient centrifugation using Histopaque-1077 (Sigma). Monkey CD3+ T cells were isolated from PBMCs using the Pan T Cell Isolation Kit Non-Human Primate (Miltenyi Biotec). Purified human or monkey CD3+ T cells were stained with the testing antibodies as the primary antibody and the APC-labelled anti-human-Fc antibody (BioLegend) as the secondary antibody. After washing, the cells were analyzed on the CytoFLEX flow cytometer (Beckman Coulter) and the data was analyzed by FlowJo software.

[8] = target: T3, human CD3 on cells (Jurkat cells, human …); assay: binding to human CD8+ T cells
[9] = target: T3, human CD3 on cells (Jurkat cells, human …); assay: binding to human CD4+ T cells
[10] = target: T3, human CD3 on cells (Jurkat cells, human …); assay: binding to human CD3+ T cells
[11] = target: T4, cynomolgus monkey CD3 on T cells; assay: flow cytometry, monkey CD3+ T cells
Excerpt: as §2

T3 sequence (P07766 23-207): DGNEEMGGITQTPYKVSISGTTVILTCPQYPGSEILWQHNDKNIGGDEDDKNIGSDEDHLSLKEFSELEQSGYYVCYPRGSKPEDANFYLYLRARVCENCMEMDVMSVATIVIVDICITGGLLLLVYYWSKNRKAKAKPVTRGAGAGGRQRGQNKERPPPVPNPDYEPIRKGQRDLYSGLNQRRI
T4 sequence (Q95LI5 22-198): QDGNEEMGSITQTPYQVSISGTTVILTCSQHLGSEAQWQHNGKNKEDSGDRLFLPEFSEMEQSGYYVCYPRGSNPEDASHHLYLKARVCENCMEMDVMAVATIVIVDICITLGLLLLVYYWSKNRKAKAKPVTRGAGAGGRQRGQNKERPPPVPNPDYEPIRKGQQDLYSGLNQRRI

Row | Binder | Jurkat NFAT reporter assay EC50 [1] [nM] | Masking efficiency (Jurkat NFAT reporter assay) [1] [fold] | EC50 (read off the curve) [2] | EC50 [3] [nM] | EC50 [4] [nM] | binding result [5] | EC50 [6] [nM] | EC50 [7] [nM] | max MFI [7] [MFI] | EC50 [8] [nM] | EC50 [9] [nM] | EC50 [10] [nM] | EC50 [11] [nM] | max MFI [11] [MFI]
1 | B1 | 0.02 | 1 | ~0.7 nM and ~0.3 nM and ~0.5 nM and ~0.6 nM | – | – | – | – | – | – | – | – | – | – | –
2 | B2 | – | – | – | 27.3 | 39.1 | binds | 82.1 | 9.52 | 4850 | 25.4 | 18.1 | 21.7 | 10.5 | 2100
